T1: Macaca fascicularis PDGFRb.mmh (Macaca fascicularis)
T1 construct: Soluble monomeric construct; also called mfPDGFRb.mmh
T1 chain: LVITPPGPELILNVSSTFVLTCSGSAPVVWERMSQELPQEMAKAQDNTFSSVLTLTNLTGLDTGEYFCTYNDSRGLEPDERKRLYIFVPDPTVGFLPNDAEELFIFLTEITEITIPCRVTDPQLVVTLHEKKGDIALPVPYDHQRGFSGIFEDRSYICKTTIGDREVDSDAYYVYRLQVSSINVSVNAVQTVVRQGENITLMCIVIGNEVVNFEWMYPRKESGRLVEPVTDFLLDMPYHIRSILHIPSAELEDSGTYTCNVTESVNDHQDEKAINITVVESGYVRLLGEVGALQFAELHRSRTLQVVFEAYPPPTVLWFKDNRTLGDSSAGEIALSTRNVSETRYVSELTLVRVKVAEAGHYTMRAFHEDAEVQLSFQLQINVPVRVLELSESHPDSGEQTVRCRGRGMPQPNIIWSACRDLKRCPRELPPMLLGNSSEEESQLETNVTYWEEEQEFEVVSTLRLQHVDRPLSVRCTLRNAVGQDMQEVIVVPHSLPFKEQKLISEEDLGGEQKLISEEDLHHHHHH


Legend:
[1] = molecular target: T2, full length human PDGFR-beta on HEK293 cells (human, UniProt P09619 33-1106); experiment: cell-based or functional assay
[2] = molecular target: T2, full length human PDGFR-beta on HEK293 …; experiment: cell-based or functional assay; remark: listed apart in the source
[3] = molecular target: T3, hPDGFRb.mmh (human, UniProt P09619 33-531); experiment: SPR, mAb captured, 25 C
T3 construct: Soluble monomeric construct; also called soluble human PDGFR-beta.mmh
Method: (§1) Antibodies, expressed as either mouse Fc (prefix H1M; H2M) or human Fc (prefix H4H), were captured on their respective anti-Fc sensor surfaces (Mab capture format). […] Kinetic association (kₐ) and dissociation (kd) rate constants were determined by processing and fitting the data to a 1:1 binding model using Scrubber 2.0 curve fitting software.

[4] = molecular target: T1, Macaca fascicularis PDGFRb.mmh; experiment: SPR, mAb captured, 25 C
Method: as §1

[5] = molecular target: T4, human PDGFRb.hFc (human); experiment: SPR, mAb captured, 25 C
T4 construct: Soluble dimeric construct with human Fc; also called hPDGFRb.hFc
Method: as §1

[6] = molecular target: T3, hPDGFRb.mmh; experiment: SPR, mAb captured, 37 C
Method: as §1

[7] = molecular target: T1, Macaca fascicularis PDGFRb.mmh; experiment: SPR, mAb captured, 37 C
Method: as §1

[8] = molecular target: T4, human PDGFRb.hFc; experiment: SPR, mAb captured, 37 C
Method: as §1

[9] = molecular target: T3, hPDGFRb.mmh; experiment: blocking ELISA, biot-hPDGFRb.mmh to coated PDGF-BB
[10] = molecular target: T3, hPDGFRb.mmh; experiment: Octet BLI cross-competition, 25 C; hPDGFRb.mmh on anti-Penta-His tips pre-saturated with mAb-1 H4H3094P (row 5)
Method: (§2) A cross-competition assay was conducted to assess the ability of select antibodies to compete with one another for binding to human PDGFR-beta. […] Each PDGFR-beta.mmh-coated sensor tip was saturated for 5 min with a first anti-PDGFR-beta antibody (Mab #1; 50 μg/mL). Next, each sensor tip was saturated with a solution of a second anti-PDGFR-beta antibody (Mab #2). The real time response of Mab #2 binding to PDGR-beta.mmh pre-complexed with Mab #1 was then monitored. All assays were performed at 25° C. with a flow rate of 1000 rpm on an Octet RED384 biosensor in Octet HBST buffer according to manufacturer's instructions (ForteBio Corp., Menlo Park, Calif.). Results are illustrated in FIG. 2.

[11] = molecular target: T3, hPDGFRb.mmh; experiment: Octet BLI cross-competition, 25 C; hPDGFRb.mmh on anti-Penta-His tips pre-saturated with mAb-1 H4H3099S (row 6)
Method: as §2

[12] = molecular target: T3, hPDGFRb.mmh; experiment: Octet BLI cross-competition, 25 C; hPDGFRb.mmh on anti-Penta-His tips pre-saturated with mAb-1 H4H3103S (row 4)
Method: as §2

[13] = molecular target: T3, hPDGFRb.mmh; experiment: Octet BLI cross-competition, 25 C; hPDGFRb.mmh on anti-Penta-His tips pre-saturated with mAb-1 H4H3305N (row 8)
Method: as §2

[14] = molecular target: T3, hPDGFRb.mmh; experiment: Octet BLI cross-competition, 25 C; hPDGFRb.mmh on anti-Penta-His tips pre-saturated with mAb-1 H4H3310N (row 9)
Method: as §2

[15] = molecular target: T3, hPDGFRb.mmh; experiment: Octet BLI cross-competition, 25 C; hPDGFRb.mmh on anti-Penta-His tips pre-saturated with mAb-1 H4H3365N (row 2)
Method: as §2

[16] = molecular target: T3, hPDGFRb.mmh; experiment: Octet BLI cross-competition, 25 C; hPDGFRb.mmh on anti-Penta-His tips pre-saturated with mAb-1 H4H3374N (row 3)
Method: as §2

[17] = molecular target: T3, hPDGFRb.mmh; experiment: Octet BLI cross-competition, 25 C; hPDGFRb.mmh on anti-Penta-His tips pre-saturated with mAb-1 Control I (row 1)
Method: as §2

[18] = molecular target: T3, hPDGFRb.mmh; experiment: Octet BLI cross-competition, 25 C; hPDGFRb.mmh on anti-Penta-His tips pre-saturated with mAb-1 H4H3107S (row 7)
Method: as §2

[19] = molecular target: human PDGF-BB (human, UniProt P01127 82-190); experiment: SPR (Biacore 3000), 30 nM ligand over hPDGFRb.mFc captured by anti-mouse Fc, no antibody
Sequence of human PDGF-BB (P01127 82-190 limits assumed): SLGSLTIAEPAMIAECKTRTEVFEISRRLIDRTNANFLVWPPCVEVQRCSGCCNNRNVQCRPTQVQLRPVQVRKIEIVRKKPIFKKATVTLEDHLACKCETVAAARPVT
Text: Real-time binding response was monitored throughout the course of the assay and was compared to the binding response measured when PDGF ligand was applied over the derivatized captured control surface in the absence of captured antibody.

Row | Binder | IC50, blocking PDGF-BB (250 pM) activation, SRE-luciferase [1] [M] | IC50, blocking PDGF-DD (400 pM) activation, SRE-luciferase [1] [M] | Percent Internalization (Relative to Control I) [2] [%] | Kd [3] [nM] | koff [3] [s⁻¹] | kon [3] [M⁻¹ s⁻¹] | t1/2 [3] [min] | Kd [4] [nM] | koff [4] [s⁻¹] | kon [4] [M⁻¹ s⁻¹] | t1/2 [4] [min] | Kd [5] [nM] | koff [5] [s⁻¹] | kon [5] [M⁻¹ s⁻¹] | t1/2 [5] [min] | Kd [6] [nM] | koff [6] [s⁻¹] | kon [6] [M⁻¹ s⁻¹] | t1/2 [6] [min] | Kd [7] [nM] | other results
1 | H4H3107S (antibody, human IgG4, V domains shown, human IgG4 Fc (H4H prefix)) VH: QVQLVESGGGFVQPGGSLRLSCAASGFTFTNYAMSWVRQAPGKGLEWVSAISGVGGSTYYADSVKGRFTISRDTSKNMLYLQMNSLRAEDTAVYYCAKAPHWGPFGSWGQGTLVTVSS VL: not shown | 1.7e-10 | 2.4e-10 | 92 | 0.863 | 0.000191 | 221000 | 61 | 0.836 | 0.000198 | 236000 | 58 | 0.0801 | 4.24e-05 | 529000 | 272 | 1.45 | 0.000879 | 605000 | 13 | 1.38 | koff [7]: 0.000942 s⁻¹; kon [7]: 683000 M⁻¹ s⁻¹; t1/2 [7]: 12 min; Kd [8]: 0.165 nM; koff [8]: 0.000115 s⁻¹; kon [8]: 695000 M⁻¹ s⁻¹; t1/2 [8]: 101 min; % Maximum Blocking [9]: 83%; IC50 [9]: 0.066 nM; Response of mAb-2 Binding to hPDGFRβ.mmh Pre-Complexed with mAb-1 (nm) [10]: 0.36 nm; Response of mAb-2 Binding to hPDGFRβ.mmh Pre-Complexed with mAb-1 (nm) [11]: 0.01 nm; Response of mAb-2 Binding to hPDGFRβ.mmh Pre-Complexed with mAb-1 (nm) [12]: 0.33 nm; Response of mAb-2 Binding to hPDGFRβ.mmh Pre-Complexed with mAb-1 (nm) [13]: 0.02 nm; Response of mAb-2 Binding to hPDGFRβ.mmh Pre-Complexed with mAb-1 (nm) [14]: 0.02 nm; Response of mAb-2 Binding to hPDGFRβ.mmh Pre-Complexed with mAb-1 (nm) [15]: 0.32 nm; Response of mAb-2 Binding to hPDGFRβ.mmh Pre-Complexed with mAb-1 (nm) [16]: 0.31 nm; Response of mAb-2 Binding to hPDGFRβ.mmh Pre-Complexed with mAb-1 (nm) [17]: 0.28 nm
2 | H4H3365N (antibody, human IgG4, V domains shown, human IgG4 Fc (H4H prefix)) VH: EVQLVESGGGLVQPGRSLRLSCAASGFTFDDFAMHWVRQVPGKGLEWVSGISWSSGTIGYVGSVKGRFTISRDNAKNSLYLQMNSLRAEDTAMYFCTKDKAAFHDAFDIWGQGTMVTVSS VL: not shown | 2.3e-10 | 3.7e-10 | 65 | 1.66 | 0.000142 | 85300 | 81 | 1.7 | 0.00015 | 88300 | 77 | 0.244 | 4.55e-05 | 184000 | 254 | 5.38 | 0.00102 | 190000 | 11 | 5.06 | koff [7]: 0.00101 s⁻¹; kon [7]: 200000 M⁻¹ s⁻¹; t1/2 [7]: 11 min; Kd [8]: 1.05 nM; koff [8]: 0.000264 s⁻¹; kon [8]: 250000 M⁻¹ s⁻¹; t1/2 [8]: 44 min; % Maximum Blocking [9]: 87%; IC50 [9]: 0.37 nM; Response of mAb-2 Binding to hPDGFRβ.mmh Pre-Complexed with mAb-1 (nm) [10]: 0 nm; Response of mAb-2 Binding to hPDGFRβ.mmh Pre-Complexed with mAb-1 (nm) [11]: 0.29 nm; Response of mAb-2 Binding to hPDGFRβ.mmh Pre-Complexed with mAb-1 (nm) [12]: 0.01 nm; Response of mAb-2 Binding to hPDGFRβ.mmh Pre-Complexed with mAb-1 (nm) [18]: 0.26 nm; Response of mAb-2 Binding to hPDGFRβ.mmh Pre-Complexed with mAb-1 (nm) [13]: 0.28 nm; Response of mAb-2 Binding to hPDGFRβ.mmh Pre-Complexed with mAb-1 (nm) [14]: 0.28 nm; Response of mAb-2 Binding to hPDGFRβ.mmh Pre-Complexed with mAb-1 (nm) [16]: 0.01 nm
3 | human PDGFRb.mFc (Fc fusion, Soluble dimeric construct with mouse Fc; also called hPDGFRb.mFc; soluble human PDGFR-beta.mFc) LVVTPPGPELVLNVSSTFVLTCSGSAPVVWERMSQEPPQEMAKAQDGTFSSVLTLTNLTGLDTGEYFCTHNDSRGLETDERKRLYIFVPDPTVGFLPNDAEELFIFLTEITEITIPCRVTDPQLVVTLHEKKGDVALPVPYDHQRGFFGIFEDRSYICKTTIGDREVDSDAYYVYRLQVSSINVSVNAVQTVVRQGENITLMCIVIGNEVVNFEWTYPRKESGRLVEPVTDFLLDMPYHIRSILHIPSAELEDSGTYTCNVTESVNDHQDEKAINITVVESGYVRLLGEVGTLQFAELHRSRTLQVVFEAYPPPTVLWFKDNRTLGDSSAGEIALSTRNVSETRYVSELTLVRVKVAEAGHYTMRAFHEDAEVQLSFQLQINVPVRVLELSESHPDSGEQTVRCRGRGMPQPNIIWSACRDLKRCPRELPPTLLGNSSEEESQLETNVTYWEEEQEFEVVSTLRLQHVDRPLSVRCTLRNAVGQDTQEVIVVPHSLPFKEPRGPTIKPCPPCKCPAPNLLGGPSVFIFPPKIKDVLMISLSPIVTCVVVDVSEDDPDVQISWFVNNVEVHTAQTQTHREDYNSTLRVVSALPIQHQDWMSGKEFKCKVNNKDLPAPIERTISKPKGSVRAPQVYVLPPPEEEMTKKQVTLTCMVTDFMPEDIYVEWTNNGKTELNYKNTEPVLDSDGSYFMYSKLRVEKKNWVERNSYSCSVVHEGLHNHHTTKSFSRTPGK | – | – | – | – | – | – | – | – | – | – | – | – | – | – | – | – | – | – | – | – | binding result [19]: binds
4 | H4H3103S (antibody, human IgG4, V domains shown, human IgG4 Fc (H4H prefix)) VH: EVQLLQSGGGLVQPGGSLRLSCAASGFTFSHYWMSWVRQGPGKGLEWVATIKKDGSESYYVDSVRGRFTISRDNAKNSLYLQMNSLRTEDTAVYYCARDIVTPNVGYYFGMDVWGQGTTVTVSS VL: DIQMTQSPSTLSASVGDRVTITCRASQSISSWLSWYQQKPGKAPKLLIYMASTLESGVPSRFSGSGSGTDFTLTITSLQPDDFATYYCQQSNSYSRTFGHGTKLEIK | 2e-10 | 2.6e-10 | 87 | 3.13 | 0.00105 | 335000 | 11 | 3.24 | 0.00116 | 359000 | 10 | 0.264 | 0.000164 | 621000 | 70 | 10.1 | 0.00497 | 492000 | 2 | 10.2 | koff [7]: 0.00556 s⁻¹; kon [7]: 544000 M⁻¹ s⁻¹; t1/2 [7]: 2 min; Kd [8]: 0.405 nM; koff [8]: 0.000306 s⁻¹; kon [8]: 757000 M⁻¹ s⁻¹; t1/2 [8]: 38 min; % Maximum Blocking [9]: 90%; IC50 [9]: 0.24 nM; Response of mAb-2 Binding to hPDGFRβ.mmh Pre-Complexed with mAb-1 (nm) [10]: 0 nm; Response of mAb-2 Binding to hPDGFRβ.mmh Pre-Complexed with mAb-1 (nm) [11]: 0.26 nm; Response of mAb-2 Binding to hPDGFRβ.mmh Pre-Complexed with mAb-1 (nm) [18]: 0.24 nm; Response of mAb-2 Binding to hPDGFRβ.mmh Pre-Complexed with mAb-1 (nm) [13]: 0.26 nm; Response of mAb-2 Binding to hPDGFRβ.mmh Pre-Complexed with mAb-1 (nm) [14]: 0.25 nm; Response of mAb-2 Binding to hPDGFRβ.mmh Pre-Complexed with mAb-1 (nm) [15]: 0.02 nm; Response of mAb-2 Binding to hPDGFRβ.mmh Pre-Complexed with mAb-1 (nm) [16]: 0.01 nm; Response of mAb-2 Binding to hPDGFRβ.mmh Pre-Complexed with mAb-1 (nm) [17]: -0.01 nm
